# Assay results published in the DeepSol protein solubility set.
# Assay: soluble on expression in E. coli; label from the status in PepcDB or PDB records
row,Sequence,soluble on expression in E. coli
1,MSLKCEYLIIGSGIAGYNALKELLQIKPNSRIIMITSDKYYPYDRPPLSKDYLKGKLEKDMLFFESDDFYKRDNLEVMLNKSVERIDANLKEAILNDGSVISFDKALISTGGRPRRLNIPGSENALYLRSLDDADRIREAASKGKNALIIGAGFIGVEVASSLITLGVKTTVVEVMPYIWNTFVDEKVSRVIQQYLESKGINFILNESVKEIQGKIATTSSGRKIEADMFLIAVGISPNVELAQRSGMQVDNGIVVNEYLETSARDIYAAGDIANIFDPREGKRKRIEHWNNAEYTGKLAARNMAGSREAYNFISSIWSDIFDLHIESAGETRNYDEYIIRGKFELERPRFSVIYLKGGIIKGYLAINRNVKEIIALNKLIQKQADVSSKRDKLADESFDLQKLLIEGHHHHHH,soluble
2,VADVVPLDHNNRILVSQGLKRMRSGKMRPGIRALFEVARRDWRKAQPFDMGFALGPRINAAGRLDDMSVGIACLLARDDSEAQELAAQLNNLNIERREIEQSMLQDALNDFPETLPSGQMTLVAYRDDFHQGVVGIV,not soluble
3,MSLSIFEHFQARYEAAKDEELSIQDFLALCKENKSAYANAAERLLLAIGEPEMIDTSKHSRLSRIFSNRVIARYKTFEDFYGMEEAIEQIVAYLKHAAQGLEERKQILYLLGPVGGGKSSLAEKLKALMQQMPIYVLSANGQRSPVNDHPFCLFDVNEDGELLKQEYGIDRRYLRSIMSPWAAKRLHEFGGDITKFKVVKVRPSILDQIAVAKTEPGDENNQDISSLVGKVDIRKLEHFSQDDPDAYSYSGALCRANQGLMEFVEMFKAPIKVLHPLLTATQEGNYNGTEGLSALPFDGMILAHSNESEWQTFRNNKNNEAFLDRVYIVKVPYCLRVSEEVKIYQKLLDHSELSKAPCAPSTLDLLAQFSVLSRLKVPENSSLFSKMRVYDGETLKDTDPKAKSYQEYRDYAGVDEGMSGLSTRFAFKILSRVFNFDHSEVAANPVHLFYVIEQQVEREQFPQETADRYNEFLKGYLIPRYVEFIGKEIQTAYLESYSEYGQNIFDRYVTYADFWIQDQEYRDPETGQLFDRSALNSELEKIEKTAGISNPKDFRNEIVNFVLRARANNNGQNPVWTSYEKLRTVIEKKMFSNTEDLLPVISFNAKTSSDDQKKHDDFVARMMEKGYTEKQVRLLSEWYLRVRKSSEGHHHHHH,soluble
4,MAMKERYLIIDGYNMIGQSPTLSAIAKENLEEARMQLIDAIANYNAVISDEIICVFDAYDQSGVEREYMYHGVKTIFTKEKETADSFIERYVYELYDKHTKHITVVTSDMSEQHAIFGSGAYRISSREMWRDLKENEIDVSKSLDDISENKPRTRIPLSSEILAEFEKIRRGHHKKLEHHHHHH,not soluble
5,MGSDKIHHHHHHVCRNCSNKQKIRKNSMDYTDISILHTNDMHSYMENFPKKAQLIANIRARNEKEGVPTFVFDSGDLFSGNIFFNMYRGVKEIELMNQIGCQAMTLGNHEFDHGDELISRLDDYAQFPIVSSNLRYQDVEVADELVPLEDVLEFDMNGKNLYVLGLTTLETQEVASPSENVIFEDHKQALRRLVDQIVSQNPSAHLVLLSHLGYDEDVHLAKDFPELNVILGGHTHTILKQPSQIGGVSICQAGQYGRFVGHLSLRCFADGRREVQAYDLIEVEKLTQEDRAVKAIIDQMKSERDAAFSKPIAILPQALDGERDSIRQGLSTLAPVICQALFEQASQLGLQADGAVINGFGIRASLSAGPIFYSDLVKVLPFSKRVLLVRIKGRDLLSSLQTGLHPQMWGIVQSGEDLLVNGRAVESDKDYQIVTNSFVWSGKDNYDDFHKAEIVQDLGLDIDIISEFFKRQYGG,not soluble
6,MGSDKIHHHHHHMDFALEQYHSAKDLLIFELRKFNPIVLVSSTIVATYVLTNLRHMHLDEMGIRKRLSTWFFTTVKRVPFIRKMIDKQLNEVKDELEKSLRIVDRSTEYFTTIPSHSVGRTEVLRLAAIYDDLEGPAFLEGRVSGAVFNREDDKDEREMYEEVFGKFAWTNPLWPKLFPGVRIMEAEVVRMCCNMMNGDSETCGTMSTGGSISILLACLAHRNRLLKRGEKYTEMIVPSSVHAAFFKAAECFRIKVRKIPVDPVTFKVDLVKMKAAINKRTCMLVGSAPNFPFGTVDDIEAIGQLGLEYDIPVHVDACLGGFLLPFLEEDEIRYDFRVPGVSSISADSHKYGLAPKGSSVVLYRNKELLHNQYFCDADWQGGIYASATMEGSRAGHNIALCWAAMLYHAQEGYKANARKIVDTTRKIRNGLSNIKGIKLQGPSDVCIVSWTTNDGVELYRFHNFMKEKHWQLNGLQFPAGVHIMVTMNHTHPGLAEAFVADCRAAVEFVKSHKPSESDKTSEAAIYGLAQSIPDRSLVHEFAHSYIDAVYALTE,not soluble
